One data set deals with T1, TB7.7 (Mycobacterium tuberculosis H37Rv, UniProt P9WJ11 P9WJ11:1-81).
T1 sequence: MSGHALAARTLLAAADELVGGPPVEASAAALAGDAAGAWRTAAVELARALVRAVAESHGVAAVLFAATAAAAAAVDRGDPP
Description: fluorescence of Cy3-aptamer bound to TB7.7 magnetic beads; 20 mM Tris, 50 mM NaCl, 5 mM KCl, 5 mM MgCl2, pH 8.0. The settings on record: tags: His6-tag, pET32a vector, expressed in E. coli BL21(DE3); label: Cy3. As to the method:
16 μg of TB7.7 was mixed with 10 μL of magnetic beads, and then incubated in 100 μL of a binding buffer (20 mM Tris, 50 mM NaCl, 5 mM KCl, 5 mM MgCl₂, pH 8.0) for 1 hour. To separate unbound TB7.7, washing was performed twice with a binding buffer. Subsequently, the resulting mixture was incubated together with various concentrations of a Cy3-labeled aptamer for an hour, and an unbound aptamer was removed by washing. The amount of Cy3-labeled ssDNA aptamer bound to the magnetic beads with TB7.7 immobilized thereon was measured by fluorescence measurement (1420 Victor Multilabel counter, PerkinElmer, USA) by separating only Cy3-labeled ssDNA bound to TB7.7.

A further data set concerns the target CFP10 (Mycobacterium tuberculosis, UniProt P9WNK5 P9WNK5:2-100). Description: impedance biosensor, 10 pM protein in PBS; aptamer taken as TG4. From the text:
(§1) At this time, each protein was mixed at a concentration of 10 pM with PBS and used for detection.

A further data set concerns the target ESAT6 (Mycobacterium tuberculosis, UniProt P9WNK7 P9WNK7:2-95). Described as above.
Text: as §1

These results are taken from patent publication US20200407722, “DNA APTAMER […] BINDING TO TB7.7, AND USE […]” (MD APTUS INC., published 2020).

B1: TG6 (ssDNA)
DNA: CACCTAATACGACTCACTATAGCGGATCCGACACGAAGGATACTCAGTAGTACCCAGGTTGGTAGGGTAGCCTGGCTCGAACAAGCTTGC
Usually Kd stands for the equilibrium constant for the complex coming apart. Low readings indicate tighter binding, high ones weaker binding. As for B1, binding with TB7.7 was characterised by a dissociation constant (Kd) of 34.3 nM.

B2: TG5 (ssDNA)
DNA: CACCTAATACGACTCACTATAGCGGATCAGAATTTCTGTAATTAAGCGATAAATTGCTTAATAGGCACTCTCTGGCTCGAACAAGCTTGC
In the data set with TB7.7, B2 gave a dissociation constant (Kd) of 106 nM.

B3: TG4 (ssDNA)
DNA: CACCTAATACGACTCACTATAGCGGATCCGAAAGTTGTTAGTAGACTTAGGGGAGGGTTAAAGTGGGGTGGCTGGCTCGAACAAGCTTGC
B3 showed an equilibrium dissociation constant (Kd) with TB7.7 of 37.5 nM.

B4: TG4 immobilized on gold electrode (ssDNA)
DNA: B3 DNA
As to B4, the binding result with CFP10 and with ESAT6 was “no binding” throughout.
